Biological target: SARS-CoV-2 prefusion-stabilized S ectodomain trimer (SARS-CoV-2 | not stated) (UniProt P0DTC2)

Substance: S2X35 mAb (IgG1) (antibody)
- SARS-CoV-2 pseudovirus neutralization IC50; hinders ACE2 binding: 0.5 µg/mL

Reference: PMC7494283
